tested on: MS2 coat protein; assay: apparent KD of MS2 coat protein; higher = weaker reporter binding; details: Eterna round: R107; input ligand: theophylline 20 uM
Method in brief: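 Designed RNA switches were transcribed on-chip from Illumina sequencing clusters. They were then titrated with SNAP-549-labelled MS2 coat protein (twofold steps, 0.7 or 1.5 nM to 3 µM; 0.8–1.5 h to 10–20 min per step) in 100 mM Tris-HCl pH 7.5, 80 mM KCl, 4 mM MgCl2, without or with constant ligand. Apparent KD is the per-design median of normalised cluster binding-curve fits.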

Row | Sequence | apparent KD of MS2 coat protein [nM]
1 | GAUGAUAUUGCAGAUACCAGACACAUGAGGAUCACCCAUGUCUCUGAGAUGAAGGAUCGUGUCCCUUGGCAGCUGCGAUAUCAUC [Bulgaria] | 72.9
2 | ACAUGAGGAUCACCCAUGUACAUGACGGAAGGAGCGUGCAAAAGCACAGGUAGGUCGCCGAUCUACAUAUUGGGUAUUAUAUUUU [#29 Exclusion - Arginine A] | 35.7
3 | CGUGUCGUAACUGAUACCAGUGUACUGACAUGAGGAUCACCCAUGUUGGGUUUUGUUGUACACCCUUGGCAGCAGAAUCGAUACG [AstrosExyTheB#7] | 94
4 | ACAUGAGGAUCACCCAUGUGAAGGCACGAUACCAGCUGAUCCCGUGGCCCUUGGCAGCGUCCGGUUUGGUCCGGCGGAUGGGACG [vvamullin] | 33.6
5 | AAUUAUCAGUCGGCCGCCACUGACACAUGAGGAUCACCCAUGUAAUAUGGGUAAAAUUAACUGAACAGGACCGGGACAAAUGCUA [JR_SSTryptoB_Sub021] | 472
6 | GUCAGAACAUAUCAUGUUCUGGCACUGGAAGGAGCGAGCGAGAGCUCAGGUAGGUCGCCAGAACAUGAGGAUCACCCAUGUAAUA [(A)''-(M)'-(A)'(Arg1)-(Arg2)-(M1)-(M2)_Design11] | 95.2
7 | UCGACAGUGAACGAUACCAGCGUCACGUGGCCGGUGGUCACAUGAGGAUCACCCAUGUAACGCCCUUGGCAGCGUGCACGUAUCC [Berisoor] | 78
8 | UAAUCAGUGCCGGUUCUCGGAUCCUCAUGUCGAGGACCGGUACGGCCGCCACUCGAAACAUGAGGAUCACCCAUGUAAUAAUAAU [#09 Exclusion Tryptophan A] | 116

same assay, conditions: Eterna round: R107; input ligand: theophylline 2 mM

Row | Sequence | apparent KD of MS2 coat protein [nM]
9 | UCACAUGAGGAUCACCCAUGUGUCAGAGAAGGAGCGGCCGCAAGGCCAGGUAGGUCGCUCGGGUAUGGUGAGGUUCACCCGUGUG [#1 Exclusion - Arginine A Attempt #13 (Inspired by cyborg)] | 57
10 | ACGUAAUGCAGAAGGAGCGUCGACCUCUUACAUGAGGAUCACCCAUGUUGCAUGGUUGUACGACAGGUAGGUCGCUGAAGUACGA [#05 Exclusion - Arginine B] | 68.1
11 | CAAUCUACCACCGGCCUACUGUACACUCGCCGAGGACCGGUACGGCCGCCACUCGACGUUCGACAUGAGGAUCACCCAUGUGGGU [theeternabot_exclusion_MS2_Trp_A_14] | 289
12 | AACCACGAGUCGGCCGCCACUUGCAACUAGUUUCAGAAGCAGAAACAUGAGGAUCACCCAUGUCGAAGGACCGGGACUUUACAGG [theeternabot_sameState_MS2_Trp_B_18] | 17.4
13 | GCGGUGGGUCAAAAGUAAUAGAAUUCUGAAGGAGCGUGAUGAAACACAGGUAGGUCGCAGGAACAUGAGGAUCACCCAUGUACGG [Same State Arginine A GF21] | 37.5
14 | CCUCAUGAACAUGAGGAUCACCCAUGUACACGAGGACCGGUACGGCCGCCACUCGAAUAACCUUAAUAUAAAUAAUAAUAAAAGG [5' end split MS2] | 19.1
15 | GAUUACAUGAGGAUCACCCAUGUAACUGAAGGAGCGGUAAUAAAGCCAGGUAGGUCGCAGAACGACAUGUGGUUCAUCCAUGUAA [#15 Exclusion - Arginine A] | 35.5
16 | ACAUGAGGAUCACCCAUGUACAUGACGGAAGGAGCGUGCAAAAGCACAGGUAGGUCGCCGAUCUACAUAUUGGGUAUUAUAUUUU [#29 Exclusion - Arginine A] | 28.3
17 | ACAUGAGGAUCACCCAUGUGAAGGCACGAUACCAGCUGAUCCCGUGGCCCUUGGCAGCGUCCGGUUUGGUCCGGCGGAUGGGACG [vvamullin] | 21.9
18 | AAUUAUCAGUCGGCCGCCACUGACACAUGAGGAUCACCCAUGUAAUAUGGGUAAAAUUAACUGAACAGGACCGGGACAAAUGCUA [JR_SSTryptoB_Sub021] | 803
19 | GUCAGAACAUAUCAUGUUCUGGCACUGGAAGGAGCGAGCGAGAGCUCAGGUAGGUCGCCAGAACAUGAGGAUCACCCAUGUAAUA [(A)''-(M)'-(A)'(Arg1)-(Arg2)-(M1)-(M2)_Design11] | 296
20 | UAAUCAGUGCCGGUUCUCGGAUCCUCAUGUCGAGGACCGGUACGGCCGCCACUCGAAACAUGAGGAUCACCCAUGUAAUAAUAAU [#09 Exclusion Tryptophan A] | 103

same assay, conditions: Eterna round: R107; input ligand: tryptophan 2.4 mM

Row | Sequence | apparent KD of MS2 coat protein [nM]
21 | UCACAUGAGGAUCACCCAUGUGUCAGAGAAGGAGCGGCCGCAAGGCCAGGUAGGUCGCUCGGGUAUGGUGAGGUUCACCCGUGUG [#1 Exclusion - Arginine A Attempt #13 (Inspired by cyborg)] | 56.7
22 | ACCUACACGGAGACGUGUAGGAGUAAUGAUACCAGCAUGGAGACAUGCCCUUGGCAGCGUUACAUGAGGAUCACCCAUGUGGUGC [ETHA #6] | 21.6
23 | ACGUAAUGCAGAAGGAGCGUCGACCUCUUACAUGAGGAUCACCCAUGUUGCAUGGUUGUACGACAGGUAGGUCGCUGAAGUACGA [#05 Exclusion - Arginine B] | 65.4
24 | GCGGUGGGUCAAAAGUAAUAGAAUUCUGAAGGAGCGUGAUGAAACACAGGUAGGUCGCAGGAACAUGAGGAUCACCCAUGUACGG [Same State Arginine A GF21] | 35.7
25 | CCUCAUGAACAUGAGGAUCACCCAUGUACACGAGGACCGGUACGGCCGCCACUCGAAUAACCUUAAUAUAAAUAAUAAUAAAAGG [5' end split MS2] | 45.5
26 | GAUUACAUGAGGAUCACCCAUGUAACUGAAGGAGCGGUAAUAAAGCCAGGUAGGUCGCAGAACGACAUGUGGUUCAUCCAUGUAA [#15 Exclusion - Arginine A] | 30.4
27 | GAUGAUAUUGCAGAUACCAGACACAUGAGGAUCACCCAUGUCUCUGAGAUGAAGGAUCGUGUCCCUUGGCAGCUGCGAUAUCAUC [Bulgaria] | 30.3
28 | ACAUGAGGAUCACCCAUGUACAUGACGGAAGGAGCGUGCAAAAGCACAGGUAGGUCGCCGAUCUACAUAUUGGGUAUUAUAUUUU [#29 Exclusion - Arginine A] | 24.2
29 | CGUGUCGUAACUGAUACCAGUGUACUGACAUGAGGAUCACCCAUGUUGGGUUUUGUUGUACACCCUUGGCAGCAGAAUCGAUACG [AstrosExyTheB#7] | 75.1
30 | ACAUGAGGAUCACCCAUGUGAAGGCACGAUACCAGCUGAUCCCGUGGCCCUUGGCAGCGUCCGGUUUGGUCCGGCGGAUGGGACG [vvamullin] | 23
31 | GUCAGAACAUAUCAUGUUCUGGCACUGGAAGGAGCGAGCGAGAGCUCAGGUAGGUCGCCAGAACAUGAGGAUCACCCAUGUAAUA [(A)''-(M)'-(A)'(Arg1)-(Arg2)-(M1)-(M2)_Design11] | 49
32 | UCGACAGUGAACGAUACCAGCGUCACGUGGCCGGUGGUCACAUGAGGAUCACCCAUGUAACGCCCUUGGCAGCGUGCACGUAUCC [Berisoor] | 25.5

Reference: the supplement of paper PMC9170038
